Legend:
[1] = biological target: T1, Ku70/Ku80 heterodimer (Ku antigen) (Mus musculus, UniProt P23475;P27641 P23475:2-608,P27641:1-732); assay: competition; no significant competition at 0.1-0.4 ug
Method: (§1) To verify the binding specificity of the Ku protein to ISS-ODN, inhibition studies were performed using cold ss or ds ISS or mutated (M, i.e., control) ODNs. Ten μg of fraction 20 from the affinity column were incubated with [³²P]-labeled ISS-ODN in the presence of unlabeled (0.1, 0.2 and 0.4 μg, respectively) ss-ISS-ODN (lanes 3-5), ds-ISS-ODN (lanes 7-9), ss-M-ODN (lanes 11-13) or ds-M-ODN (lanes 15-17).

[2] = biological target: T1, Ku70/Ku80 heterodimer (Ku antigen); assay: competition; unlabeled 0.1-0.4 ug displaces labeled ds-ISS-ODN
Method: as §1

T1 sequence (P23475 2-608, chain 1 of 2): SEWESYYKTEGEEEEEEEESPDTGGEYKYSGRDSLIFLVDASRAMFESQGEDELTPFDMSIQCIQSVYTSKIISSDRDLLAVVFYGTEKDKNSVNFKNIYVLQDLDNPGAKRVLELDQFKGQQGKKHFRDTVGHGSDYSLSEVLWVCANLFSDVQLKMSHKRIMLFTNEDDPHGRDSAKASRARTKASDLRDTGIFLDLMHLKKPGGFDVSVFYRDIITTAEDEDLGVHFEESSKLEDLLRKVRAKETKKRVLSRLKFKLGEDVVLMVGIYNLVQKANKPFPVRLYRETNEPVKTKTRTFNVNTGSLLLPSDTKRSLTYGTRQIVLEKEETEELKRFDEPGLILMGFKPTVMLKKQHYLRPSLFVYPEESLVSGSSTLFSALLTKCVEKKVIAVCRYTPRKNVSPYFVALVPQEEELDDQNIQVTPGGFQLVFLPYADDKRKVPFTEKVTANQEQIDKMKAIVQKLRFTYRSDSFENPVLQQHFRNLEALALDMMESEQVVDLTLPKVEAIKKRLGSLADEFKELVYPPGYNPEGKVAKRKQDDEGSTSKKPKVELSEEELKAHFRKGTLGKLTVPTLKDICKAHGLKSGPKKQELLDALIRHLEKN
T1 sequence (P27641 whole entry, chain 2 of 2): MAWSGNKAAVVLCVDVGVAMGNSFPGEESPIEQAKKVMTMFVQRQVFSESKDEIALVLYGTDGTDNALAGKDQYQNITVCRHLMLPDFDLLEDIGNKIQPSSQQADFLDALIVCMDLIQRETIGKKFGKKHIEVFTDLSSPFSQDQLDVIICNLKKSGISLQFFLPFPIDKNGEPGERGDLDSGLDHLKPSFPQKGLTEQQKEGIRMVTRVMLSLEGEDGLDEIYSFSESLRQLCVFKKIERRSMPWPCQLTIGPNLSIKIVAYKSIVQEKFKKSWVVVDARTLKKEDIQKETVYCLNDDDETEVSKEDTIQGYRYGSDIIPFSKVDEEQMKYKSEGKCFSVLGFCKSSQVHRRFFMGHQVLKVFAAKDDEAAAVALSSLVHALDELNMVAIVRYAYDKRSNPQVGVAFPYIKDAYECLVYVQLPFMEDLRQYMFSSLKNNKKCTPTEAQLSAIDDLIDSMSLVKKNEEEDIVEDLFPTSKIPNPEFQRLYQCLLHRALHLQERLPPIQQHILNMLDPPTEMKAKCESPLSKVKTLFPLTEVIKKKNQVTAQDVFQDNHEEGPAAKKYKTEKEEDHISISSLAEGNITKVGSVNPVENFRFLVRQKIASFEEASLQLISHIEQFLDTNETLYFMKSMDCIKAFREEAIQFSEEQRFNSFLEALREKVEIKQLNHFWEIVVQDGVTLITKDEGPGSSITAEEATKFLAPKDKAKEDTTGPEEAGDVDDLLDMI

Binder	binding result [1]	binding result [2]
TGACTGTGAACCTTAGAGATGA (ssDNA) [ss-M-ODN]	no binding	
TGACTGTGAACGTTCGAGATGA (ssDNA) [ss-ISS-ODN]		binds

Reference: patent publication US20030176373, “Agents that modulate DNA-PK activity and methods of use thereof” (published 2003)
